Legend:
[1] = tested on: global O-GlcNAc level in MCF-7 cells; experiment: Immunoblot of global O-GlcNAc level and splicing in MCF-7 stable cell lines; format: cell-based, human; settings: MCF-7 cells stably expressing the variant
Description: In addition to serving as an activator for intein splicing, 4-HT is also known as the active metabolite of tamoxifen, an FDA-approved drug for treating breast cancer patients. Breast cancer cells also have elevated OGT expression (39) and decreased levels of OGA (40, 41), resulting in elevated O-GlcNAcylation in the proteome. OGT is usually required for tumor growth and metastasis (39), and low OGA expression is correlated with poor survival in breast cancer patients (FIG. 13). The ER positive breast cancer-derived MCF-7 cell line is sensitive to tamoxifen and 4-HT, resulting in suppression of cell proliferation, yet drug resistance occurs after long-term treatment (42). Previous studies also show evidence that upregulation of O-GlcNAcylation protects MCF-7 cells from tamoxifen-induced cell death (43). To determine if reduction of O-GlcNAc sensitized MCF-7 cells to 4-HT treatment, it was assessed whether 4-HT induced inhibition of breast cancer cell proliferation and OGA-intein activation worked synergistically to accelerate cell death (FIG. 5A). […] Next, these two cell lines were treated with 4-HT at increasing concentrations, and cell viability was measured after 48 hours. […] Given that 4-HT promoted MCF-7 cell death through apoptosis (43), the apoptosis of these cells under 4-HT treatment was further analyzed through flow cytometry analyses following Annexin V and DAPI staining. […]

[2] = tested on: Nup62-NLS; experiment: Spatial deglycosylation of nuclear Nup62-NLS by OGA-intein(C181) variants in HEK293T cells; format: cell-based; settings: nuclear Nup62-NLS co-expressed
Experimental: (§1) Next, it was assessed whether these OGA-intein(C181) variants enable selective spatial deglycosylation in live cells. As O-GlcNAc affects the subcellular localization of many proteins (37), Nup62 was used as a model cytoplasmic substrate, which was previously primarily localized in the cytoplasm when transiently overexpressed in HEK293T cells independent of the O-GlcNAcylation state (13) (FIGS. 11A, 11B). Nup62 was co-expressed with three OGA-intein(C181) variants (C181-WT, C181-NLS, and C181-NES) in HEK293T cells, and Nup62 was enriched for O-GlcNAc measurement. […] Next, Nup62 was localized to the nucleus by attachment to an NLS tag (Nup62-NLS), and a similar coexpression and 4-HT-triggered activation was performed with OGA-intein(C181) variants. […] The fluorescent intensity of OGA-intein variants also show a strong correlation to the localization of Nup62, indicating the desired subcellular distribution (FIGS. 11A-C).
(§2) Immunoprecipitation and Immunoblot assays. […]
(§3) For immunoblotting analysis, proteins were transferred to a nitrocellulose membrane using an iBlot system (Invitrogen). […] Immunoblot images were captured using Azure Imager C600 and analyzed with Fiji ImageJ for converting all IR fluorescence western blot images to grayscale images.

[3] = tested on: Nup62; experiment: Spatial deglycosylation of cytoplasmic Nup62 by OGA-intein(C181) variants in HEK293T cells; format: cell-based; settings: cytoplasmic Nup62 co-expressed
Experimental: as §1, §2, §3

B1: C181_D174N: catalytically dead mutant (D174N) of OGA-intein(C181) (protein)
chain: MEQKLISEEDLAIAMVQKESQATLEERESELSSNPAASAGASLEPPAAPAPGEDNPAGAGGAAVAGAAGGARRFLCGVVEGFYGRPWVMEQRKELFRRLQKWELNTYLYAPKDDYKHRMFWREMYSVEEAEQLMTLISAAREYEIEFIYAISPGLDITFSNPKEVSTLKRKLDQVSQFGCRSFALLFNDIDHNMCLAEGTRIFDPVTGTTHRIEDVVDGRKPIHVVAAAKDGTLLARPVVSWFDQGTRDVIGLRIAGGAIVWATPDHKVLTEYGWRAAGELRKGDRVAGPGGSGNSLALSLTADQMVSALLDAEPPILYSEYDPTSPFSEASMMGLLTNLADRELVHMINWAKRVPGFVDLTLHDQAHLLERAWLEILMIGLVWRSMEHPGKLLFAPNLLLDRNQGKCVEGMVEIFDMLLATSSRFRMMNLQGEEFVCLKSIILLNSGVYTFLSSTLKSLEEKDHIHRALDKITDTLIHLMAKAGLTLQQQHQRLAQLLLILSHIRHMSNKGMEHLYSMKYKNVVPLYDLLLEMLDAHRLHAGGSGASRVQAFADALDDKFLHDMLAEGLRYSVIREVLPTRRARTFDLEVEELHTLVAEGVVVHNCAADKEVFSSFAHAQVSITNEIYQYLGEPETFLFCPTEYCGTFCYPNVSQSPYLRTVGEKLLPGIEVLWTGPKVVSKEIPVESIEEVSKIIKRAPVIWDNIHANDYDQKRLFLGPYKGRSTELIPRLKGVLTNPNCEFEANYVAIHTLATWYKSNMNGVRKDVVMTDSEDSTVSIQIKLENEGSDEDIETDVLYSPQMALKLALTEWLQEFGVPHQYSSRGSGSGSGSGSGSGSGEKPLYTAEPVTLEDLQLLADLFYLPYEHGPKGAQMLREFQWLRANSSVVSVNCKGKDSEKIEEWRSRAAKFEEMCGLVMGMFTRLSNCANRTILYDMYSYVWDIKSIMSMVKSFVQWLGCRSHSSAQFLIGDQEPWAFRGGLAGEFQRLLPIDGANDLFFQPP
B1 was tested, and the “global O-GlcNAc level after adding 4-HT” value [1] was “inactive form”.

B2: C181-NLS: OGA-intein(C181) appended to a nuclear-localization sequence (protein)
chain: MEQKLISEEDLAIAMVQKESQATLEERESELSSNPAASAGASLEPPAAPAPGEDNPAGAGGAAVAGAAGGARRFLCGVVEGFYGRPWVMEQRKELFRRLQKWELNTYLYAPKDDYKHRMFWREMYSVEEAEQLMTLISAAREYEIEFIYAISPGLDITFSNPKEVSTLKRKLDQVSQFGCRSFALLFDDIDHNMCLAEGTRIFDPVTGTTHRIEDVVDGRKPIHVVAAAKDGTLLARPVVSWFDQGTRDVIGLRIAGGAIVWATPDHKVLTEYGWRAAGELRKGDRVAGPGGSGNSLALSLTADQMVSALLDAEPPILYSEYDPTSPFSEASMMGLLTNLADRELVHMINWAKRVPGFVDLTLHDQAHLLERAWLEILMIGLVWRSMEHPGKLLFAPNLLLDRNQGKCVEGMVEIFDMLLATSSRFRMMNLQGEEFVCLKSIILLNSGVYTFLSSTLKSLEEKDHIHRALDKITDTLIHLMAKAGLTLQQQHQRLAQLLLILSHIRHMSNKGMEHLYSMKYKNVVPLYDLLLEMLDAHRLHAGGSGASRVQAFADALDDKFLHDMLAEGLRYSVIREVLPTRRARTFDLEVEELHTLVAEGVVVHNCAADKEVFSSFAHAQVSITNEIYQYLGEPETFLFCPTEYCGTFCYPNVSQSPYLRTVGEKLLPGIEVLWTGPKVVSKEIPVESIEEVSKIIKRAPVIWDNIHANDYDQKRLFLGPYKGRSTELIPRLKGVLTNPNCEFEANYVAIHTLATWYKSNMNGVRKDVVMTDSEDSTVSIQIKLENEGSDEDIETDVLYSPQMALKLALTEWLQEFGVPHQYSSRGSGSGSGSGSGSGSGEKPLYTAEPVTLEDLQLLADLFYLPYEHGPKGAQMLREFQWLRANSSVVSVNCKGKDSEKIEEWRSRAAKFEEMCGLVMGMFTRLSNCANRTILYDMYSYVWDIKSIMSMVKSFVQWLGCRSHSSAQFLIGDQEPWAFRGGLAGEFQRLLPIDGANDLFFQPPKRPAATKKAGQAKKKK
B2 was tested, and the “4-HT-induced deglycosylation of Nup62-NLS” value [2] was 4-HT-induced deglycosylation.

B3: C181-NES: OGA-intein(C181) appended to a nuclear-export sequence (protein)
chain: MEQKLISEEDLAIAMVQKESQATLEERESELSSNPAASAGASLEPPAAPAPGEDNPAGAGGAAVAGAAGGARRFLCGVVEGFYGRPWVMEQRKELFRRLQKWELNTYLYAPKDDYKHRMFWREMYSVEEAEQLMTLISAAREYEIEFIYAISPGLDITFSNPKEVSTLKRKLDQVSQFGCRSFALLFDDIDHNMCLAEGTRIFDPVTGTTHRIEDVVDGRKPIHVVAAAKDGTLLARPVVSWFDQGTRDVIGLRIAGGAIVWATPDHKVLTEYGWRAAGELRKGDRVAGPGGSGNSLALSLTADQMVSALLDAEPPILYSEYDPTSPFSEASMMGLLTNLADRELVHMINWAKRVPGFVDLTLHDQAHLLERAWLEILMIGLVWRSMEHPGKLLFAPNLLLDRNQGKCVEGMVEIFDMLLATSSRFRMMNLQGEEFVCLKSIILLNSGVYTFLSSTLKSLEEKDHIHRALDKITDTLIHLMAKAGLTLQQQHQRLAQLLLILSHIRHMSNKGMEHLYSMKYKNVVPLYDLLLEMLDAHRLHAGGSGASRVQAFADALDDKFLHDMLAEGLRYSVIREVLPTRRARTFDLEVEELHTLVAEGVVVHNCAADKEVFSSFAHAQVSITNEIYQYLGEPETFLFCPTEYCGTFCYPNVSQSPYLRTVGEKLLPGIEVLWTGPKVVSKEIPVESIEEVSKIIKRAPVIWDNIHANDYDQKRLFLGPYKGRSTELIPRLKGVLTNPNCEFEANYVAIHTLATWYKSNMNGVRKDVVMTDSEDSTVSIQIKLENEGSDEDIETDVLYSPQMALKLALTEWLQEFGVPHQYSSRGSGSGSGSGSGSGSGEKPLYTAEPVTLEDLQLLADLFYLPYEHGPKGAQMLREFQWLRANSSVVSVNCKGKDSEKIEEWRSRAAKFEEMCGLVMGMFTRLSNCANRTILYDMYSYVWDIKSIMSMVKSFVQWLGCRSHSSAQFLIGDQEPWAFRGGLAGEFQRLLPIDGANDLFFQPPLALKLAGLDIN
In the case of B3, the “removal of O-GlcNAc from Nup62 after 4-HT-triggered activation” value [3] is reported as “removed O-GlcNAc from Nup62”.
